Patent US20190031734A1 (CHILDREN S MEDICAL CENTER, published 2019)

Tests used:
[1] = molecular target: T1, CSPG4 endogenous on HeLa cells (human, UniProt Q6UVK1 30-2322); test: binding to HeLa cells; largely abolished in CSPG4^-/- cells
T1 construct: whole, on cells

[2] = molecular target: T2, FZD2-CRD-Fc, recombinant human protein (ACRO Biosystems) (human, UniProt Q14332 24-190); test: GST pull-down, immunoblot
T2 construct: domain: cysteine-rich domain (CRD); also called Fc-tagged FZD2-CRD; FZD2-Fc; not shown: Fc tag of the purchased protein

T1 sequence (Q6UVK1 30-2322): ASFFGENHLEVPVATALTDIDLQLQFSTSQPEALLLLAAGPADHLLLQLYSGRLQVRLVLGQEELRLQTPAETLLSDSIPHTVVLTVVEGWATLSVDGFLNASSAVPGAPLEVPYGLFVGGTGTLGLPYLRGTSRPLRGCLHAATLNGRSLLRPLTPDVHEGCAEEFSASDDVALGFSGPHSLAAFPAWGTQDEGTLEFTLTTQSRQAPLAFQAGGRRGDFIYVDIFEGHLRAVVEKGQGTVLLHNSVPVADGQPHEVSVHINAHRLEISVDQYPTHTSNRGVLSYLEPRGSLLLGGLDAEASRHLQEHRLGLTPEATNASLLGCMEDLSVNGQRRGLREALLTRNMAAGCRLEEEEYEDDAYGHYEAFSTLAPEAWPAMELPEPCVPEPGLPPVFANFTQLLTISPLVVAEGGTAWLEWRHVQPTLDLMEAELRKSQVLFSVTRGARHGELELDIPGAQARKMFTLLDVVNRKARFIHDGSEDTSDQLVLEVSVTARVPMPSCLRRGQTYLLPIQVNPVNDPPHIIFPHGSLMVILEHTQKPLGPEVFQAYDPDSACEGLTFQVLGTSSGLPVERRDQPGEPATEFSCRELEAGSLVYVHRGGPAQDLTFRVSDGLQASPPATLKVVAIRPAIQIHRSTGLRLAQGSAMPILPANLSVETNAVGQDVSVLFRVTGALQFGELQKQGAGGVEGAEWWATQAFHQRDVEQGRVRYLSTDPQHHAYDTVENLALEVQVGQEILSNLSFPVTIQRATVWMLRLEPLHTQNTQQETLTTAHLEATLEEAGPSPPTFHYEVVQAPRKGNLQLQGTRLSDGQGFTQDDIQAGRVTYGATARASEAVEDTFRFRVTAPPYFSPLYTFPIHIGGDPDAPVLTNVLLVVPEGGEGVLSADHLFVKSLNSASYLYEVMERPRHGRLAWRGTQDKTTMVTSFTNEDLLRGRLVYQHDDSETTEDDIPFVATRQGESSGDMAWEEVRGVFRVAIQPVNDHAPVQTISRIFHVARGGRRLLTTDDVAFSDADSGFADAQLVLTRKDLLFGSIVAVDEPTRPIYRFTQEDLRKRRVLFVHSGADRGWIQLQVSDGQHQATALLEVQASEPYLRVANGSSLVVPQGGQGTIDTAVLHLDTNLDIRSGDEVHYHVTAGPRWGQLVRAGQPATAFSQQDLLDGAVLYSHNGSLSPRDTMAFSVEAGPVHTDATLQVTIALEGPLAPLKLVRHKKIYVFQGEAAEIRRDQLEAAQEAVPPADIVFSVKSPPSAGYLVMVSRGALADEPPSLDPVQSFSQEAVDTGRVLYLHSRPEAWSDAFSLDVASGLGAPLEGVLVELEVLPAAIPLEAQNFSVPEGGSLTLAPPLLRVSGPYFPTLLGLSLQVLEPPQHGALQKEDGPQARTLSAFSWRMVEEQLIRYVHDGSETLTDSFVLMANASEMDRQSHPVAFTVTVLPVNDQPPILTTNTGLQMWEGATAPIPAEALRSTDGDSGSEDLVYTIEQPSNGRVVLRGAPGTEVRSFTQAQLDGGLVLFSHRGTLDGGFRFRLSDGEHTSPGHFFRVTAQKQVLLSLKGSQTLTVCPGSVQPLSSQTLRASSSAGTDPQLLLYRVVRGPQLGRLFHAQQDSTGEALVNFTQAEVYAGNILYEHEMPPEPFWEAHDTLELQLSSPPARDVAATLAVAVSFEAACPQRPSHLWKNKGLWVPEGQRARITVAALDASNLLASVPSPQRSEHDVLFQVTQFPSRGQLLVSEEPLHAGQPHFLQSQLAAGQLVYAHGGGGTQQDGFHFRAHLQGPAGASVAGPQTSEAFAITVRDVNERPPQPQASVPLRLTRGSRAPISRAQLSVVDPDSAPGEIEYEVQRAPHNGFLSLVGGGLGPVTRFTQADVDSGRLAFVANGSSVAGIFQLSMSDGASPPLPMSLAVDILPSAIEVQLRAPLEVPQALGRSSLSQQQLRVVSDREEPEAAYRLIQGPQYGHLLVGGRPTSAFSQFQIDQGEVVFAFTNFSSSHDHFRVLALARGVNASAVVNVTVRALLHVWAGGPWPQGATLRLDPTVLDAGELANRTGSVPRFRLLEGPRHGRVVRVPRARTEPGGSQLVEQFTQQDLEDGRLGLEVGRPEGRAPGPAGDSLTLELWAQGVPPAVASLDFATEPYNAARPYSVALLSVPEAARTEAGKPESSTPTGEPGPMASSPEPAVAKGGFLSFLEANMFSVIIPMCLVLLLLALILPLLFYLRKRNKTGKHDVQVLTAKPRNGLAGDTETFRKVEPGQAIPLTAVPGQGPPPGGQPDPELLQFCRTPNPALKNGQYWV

B1: CROPs fragment of TcdB (TcdB1831-2366) as used in the cell-binding assays (other)
chain: MVSGLIYINDSLYYFKPPVNNLITGFVTVGDDKYYFNPINGGAASIGETIIDDKNYYFNQSGVLQTGVFSTEDGFKYFAPANTLDENLEGEAIDFTGKLIIDENIYYFDDNYRGAVEWKELDGEMHYFSPETGKAFKGLNQIGDYKYYFNSDGVMQKGFVSINDNKHYFDDSGVMKVGYTEIDGKHFYFAENGEMQIGVFNTEDGFKYFAHHNEDLGNEEGEEISYSGILNFNNKIYYFDDSFTAVVGWKDLEDGSKYYFDEDTAEAYIGLSLINDGQYYFNDDGIMQVGFVTINDKVFYFSDSGIIESGVQNIDDNYFYIDDNGIVQIGVFDTSDGYKYFAPANTVNDNIYGQAVEYSGLVRVGEDVYYFGETYTIETGWIYDMENESDKYYFNPETKKACKGINLIDDIKYYFDEKGIMRTGLISFENNNYYFNENGEMQFGYINIEDKMFYFGEDGVMQIGVFNTPDGFKYFAHQNTLDENFEGESINYTGWLDLDEKRYYFTDEYIAATGSVIIDGEEYYFDPDTAQLVISE
**Q.** Does B1 bind [1]?
**A.** Result: binds

B2: GST-tagged CROPs region of TcdB (residues 1831-2366) (other)
chain: MVSGLIYINDSLYYFKPPVNNLITGFVTVGDDKYYFNPINGGAASIGETIIDDKNYYFNQSGVLQTGVFSTEDGFKYFAPANTLDENLEGEAIDFTGKLIIDENIYYFDDNYRGAVEWKELDGEMHYFSPETGKAFKGLNQIGDYKYYFNSDGVMQKGFVSINDNKHYFDDSGVMKVGYTEIDGKHFYFAENGEMQIGVFNTEDGFKYFAHHNEDLGNEEGEEISYSGILNFNNKIYYFDDSFTAVVGWKDLEDGSKYYFDEDTAEAYIGLSLINDGQYYFNDDGIMQVGFVTINDKVFYFSDSGIIESGVQNIDDNYFYIDDNGIVQIGVFDTSDGYKYFAPANTVNDNIYGQAVEYSGLVRVGEDVYYFGETYTIETGWIYDMENESDKYYFNPETKKACKGINLIDDIKYYFDEKGIMRTGLISFENNNYYFNENGEMQFGYINIEDKMFYFGEDGVMQIGVFNTPDGFKYFAHQNTLDENFEGESINYTGWLDLDEKRYYFTDEYIAATGSVIIDGEEYYFDPDTAQLVISE
**Q.** Does B2 bind [2]?
**A.** Result: no binding (tested: 10 nM FZD2-CRD-Fc)
